Laboratory results published in publication doi:10.1101/683052.

Target: dynein/ dynactin/ BicD2-S complex (human | human (endogenous in HEK293-T)) (UniProt Q14204)
Experiment: single-molecule TIRF colocalisation on microtubules

Sequence of dynein/ dynactin/ BicD2-S complex (human | human (endogenous in HEK293-T)) (Q14204 whole entry, looked up, one chain of several): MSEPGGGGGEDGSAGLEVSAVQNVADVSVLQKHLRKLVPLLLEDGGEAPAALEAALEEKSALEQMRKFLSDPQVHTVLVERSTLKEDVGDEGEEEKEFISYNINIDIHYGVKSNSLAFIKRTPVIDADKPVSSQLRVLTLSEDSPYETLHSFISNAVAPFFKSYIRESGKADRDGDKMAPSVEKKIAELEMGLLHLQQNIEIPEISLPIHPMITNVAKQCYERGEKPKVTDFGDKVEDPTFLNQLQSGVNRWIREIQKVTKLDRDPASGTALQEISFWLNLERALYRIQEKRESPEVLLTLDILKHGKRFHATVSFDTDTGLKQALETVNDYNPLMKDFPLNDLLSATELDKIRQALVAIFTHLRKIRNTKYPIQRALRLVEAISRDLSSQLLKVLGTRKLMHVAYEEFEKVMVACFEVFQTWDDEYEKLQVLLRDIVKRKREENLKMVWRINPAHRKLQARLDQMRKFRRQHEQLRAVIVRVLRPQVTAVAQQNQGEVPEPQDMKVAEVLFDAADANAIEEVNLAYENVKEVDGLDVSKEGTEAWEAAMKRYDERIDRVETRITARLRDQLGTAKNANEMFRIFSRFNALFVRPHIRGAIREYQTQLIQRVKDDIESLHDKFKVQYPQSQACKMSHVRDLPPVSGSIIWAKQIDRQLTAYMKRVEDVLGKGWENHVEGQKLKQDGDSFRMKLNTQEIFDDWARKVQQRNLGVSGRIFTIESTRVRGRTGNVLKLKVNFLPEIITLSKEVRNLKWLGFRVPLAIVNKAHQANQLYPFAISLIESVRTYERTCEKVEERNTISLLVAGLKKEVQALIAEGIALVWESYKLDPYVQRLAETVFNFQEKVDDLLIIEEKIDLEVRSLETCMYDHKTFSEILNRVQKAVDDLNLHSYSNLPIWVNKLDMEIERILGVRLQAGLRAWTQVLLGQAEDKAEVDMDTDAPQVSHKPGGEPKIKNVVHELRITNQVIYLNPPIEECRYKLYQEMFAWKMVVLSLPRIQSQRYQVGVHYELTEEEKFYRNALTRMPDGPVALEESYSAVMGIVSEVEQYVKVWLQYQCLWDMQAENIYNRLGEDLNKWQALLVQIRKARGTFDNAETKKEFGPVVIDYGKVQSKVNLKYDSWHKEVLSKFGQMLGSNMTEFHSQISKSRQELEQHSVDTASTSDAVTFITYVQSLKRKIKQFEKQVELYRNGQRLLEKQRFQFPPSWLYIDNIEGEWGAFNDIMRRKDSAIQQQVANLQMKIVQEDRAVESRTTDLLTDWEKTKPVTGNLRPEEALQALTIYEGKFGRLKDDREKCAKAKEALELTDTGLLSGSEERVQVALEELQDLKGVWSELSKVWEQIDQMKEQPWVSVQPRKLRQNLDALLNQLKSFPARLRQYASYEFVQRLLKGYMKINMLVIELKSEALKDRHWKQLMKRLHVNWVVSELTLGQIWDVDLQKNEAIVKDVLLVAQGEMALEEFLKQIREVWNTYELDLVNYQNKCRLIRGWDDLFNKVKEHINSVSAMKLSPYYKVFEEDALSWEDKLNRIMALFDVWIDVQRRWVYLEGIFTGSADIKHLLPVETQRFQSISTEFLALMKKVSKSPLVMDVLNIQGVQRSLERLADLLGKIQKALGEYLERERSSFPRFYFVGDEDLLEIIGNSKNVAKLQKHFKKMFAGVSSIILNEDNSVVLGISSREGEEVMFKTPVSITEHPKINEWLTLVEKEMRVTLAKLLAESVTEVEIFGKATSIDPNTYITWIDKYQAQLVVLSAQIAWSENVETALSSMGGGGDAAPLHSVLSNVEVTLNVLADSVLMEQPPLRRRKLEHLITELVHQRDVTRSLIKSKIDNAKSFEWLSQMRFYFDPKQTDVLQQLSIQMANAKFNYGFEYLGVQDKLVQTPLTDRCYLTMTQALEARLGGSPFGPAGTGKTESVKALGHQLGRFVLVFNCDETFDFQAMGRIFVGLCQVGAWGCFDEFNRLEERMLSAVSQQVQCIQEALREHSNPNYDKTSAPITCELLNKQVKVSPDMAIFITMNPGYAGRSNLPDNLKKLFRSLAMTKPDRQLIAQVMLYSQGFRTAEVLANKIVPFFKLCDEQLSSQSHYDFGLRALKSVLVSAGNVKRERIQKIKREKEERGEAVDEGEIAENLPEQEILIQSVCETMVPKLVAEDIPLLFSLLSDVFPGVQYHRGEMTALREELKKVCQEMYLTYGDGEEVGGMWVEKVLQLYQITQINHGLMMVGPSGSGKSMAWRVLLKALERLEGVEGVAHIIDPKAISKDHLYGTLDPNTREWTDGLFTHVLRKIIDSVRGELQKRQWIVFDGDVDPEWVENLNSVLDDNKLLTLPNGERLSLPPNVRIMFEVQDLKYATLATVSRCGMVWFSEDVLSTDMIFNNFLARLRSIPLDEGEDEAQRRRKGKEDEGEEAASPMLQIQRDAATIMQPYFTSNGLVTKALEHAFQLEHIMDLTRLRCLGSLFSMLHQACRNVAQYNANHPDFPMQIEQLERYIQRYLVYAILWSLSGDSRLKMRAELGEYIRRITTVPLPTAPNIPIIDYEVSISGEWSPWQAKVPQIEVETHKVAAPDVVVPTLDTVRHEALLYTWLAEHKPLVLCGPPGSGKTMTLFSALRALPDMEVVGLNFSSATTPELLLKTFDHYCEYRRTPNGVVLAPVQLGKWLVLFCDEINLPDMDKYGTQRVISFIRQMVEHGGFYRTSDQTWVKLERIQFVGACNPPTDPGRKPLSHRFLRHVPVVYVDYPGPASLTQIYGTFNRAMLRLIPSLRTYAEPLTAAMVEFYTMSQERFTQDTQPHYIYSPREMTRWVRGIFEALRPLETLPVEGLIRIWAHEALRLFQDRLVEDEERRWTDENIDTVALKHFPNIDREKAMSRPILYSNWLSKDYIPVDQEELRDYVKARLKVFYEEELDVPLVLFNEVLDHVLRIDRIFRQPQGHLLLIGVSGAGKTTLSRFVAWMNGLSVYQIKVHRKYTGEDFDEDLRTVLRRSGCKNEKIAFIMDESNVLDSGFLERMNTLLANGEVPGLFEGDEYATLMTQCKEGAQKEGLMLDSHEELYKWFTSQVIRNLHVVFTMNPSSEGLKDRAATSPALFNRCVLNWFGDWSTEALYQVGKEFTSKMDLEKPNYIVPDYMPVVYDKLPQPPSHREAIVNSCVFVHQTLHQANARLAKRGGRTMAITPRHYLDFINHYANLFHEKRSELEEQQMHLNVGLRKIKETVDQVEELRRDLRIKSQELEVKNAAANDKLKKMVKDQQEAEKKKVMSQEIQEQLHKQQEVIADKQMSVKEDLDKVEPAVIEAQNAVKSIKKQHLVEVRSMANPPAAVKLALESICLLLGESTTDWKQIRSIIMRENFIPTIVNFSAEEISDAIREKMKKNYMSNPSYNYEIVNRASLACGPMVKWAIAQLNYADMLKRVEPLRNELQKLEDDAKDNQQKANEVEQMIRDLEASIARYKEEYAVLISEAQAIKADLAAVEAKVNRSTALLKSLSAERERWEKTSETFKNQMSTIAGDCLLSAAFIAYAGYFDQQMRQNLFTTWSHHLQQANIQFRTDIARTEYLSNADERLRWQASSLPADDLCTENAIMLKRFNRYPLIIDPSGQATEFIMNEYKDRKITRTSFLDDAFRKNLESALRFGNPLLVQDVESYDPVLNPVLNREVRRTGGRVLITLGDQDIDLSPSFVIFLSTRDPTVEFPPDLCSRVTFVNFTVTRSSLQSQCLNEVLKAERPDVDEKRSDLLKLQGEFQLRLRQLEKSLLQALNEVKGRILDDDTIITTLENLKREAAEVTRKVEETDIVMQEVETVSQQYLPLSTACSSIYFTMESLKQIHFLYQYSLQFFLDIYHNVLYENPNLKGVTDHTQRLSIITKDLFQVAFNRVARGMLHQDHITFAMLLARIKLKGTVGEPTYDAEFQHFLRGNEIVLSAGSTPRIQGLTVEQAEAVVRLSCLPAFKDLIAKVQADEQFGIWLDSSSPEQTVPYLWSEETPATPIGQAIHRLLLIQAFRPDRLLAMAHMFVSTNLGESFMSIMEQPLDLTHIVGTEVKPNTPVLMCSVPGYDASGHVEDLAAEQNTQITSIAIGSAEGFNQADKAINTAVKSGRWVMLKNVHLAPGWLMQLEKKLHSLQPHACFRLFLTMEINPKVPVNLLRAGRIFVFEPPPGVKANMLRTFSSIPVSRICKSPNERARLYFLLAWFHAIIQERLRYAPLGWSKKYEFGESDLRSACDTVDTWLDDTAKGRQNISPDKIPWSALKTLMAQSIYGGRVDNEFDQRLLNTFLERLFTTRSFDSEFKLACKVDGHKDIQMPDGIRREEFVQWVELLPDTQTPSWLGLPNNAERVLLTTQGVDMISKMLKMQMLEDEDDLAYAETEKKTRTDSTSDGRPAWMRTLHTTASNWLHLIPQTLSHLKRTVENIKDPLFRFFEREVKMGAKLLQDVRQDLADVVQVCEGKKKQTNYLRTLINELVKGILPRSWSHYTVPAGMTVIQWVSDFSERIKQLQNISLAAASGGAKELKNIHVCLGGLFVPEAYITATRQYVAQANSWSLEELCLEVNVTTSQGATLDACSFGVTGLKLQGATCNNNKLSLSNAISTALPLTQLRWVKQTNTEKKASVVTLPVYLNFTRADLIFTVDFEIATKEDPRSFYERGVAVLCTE

percent of dynein runs that comigrated with Lis1: 16.8%
Substance: HaloTag-Lis1 (human full-length Lis1, PAFAH1B1) (from UniProt P43034 1-410) (natural protein)
